Source: the DeepSol protein solubility set

Test: soluble on expression in E. coli; label from the status in PepcDB or PDB records

Sequence | soluble on expression in E. coli
MDKDMQLIRGLHNANRVLQGCALTIGNFDGVHLGHQTVLRHLRQKADELNLPMAVLLFESQPREYFMGKNAPARLMRLRDKIYYLEKAKVDVVIVAKFDRTFAEQLADVFIEQTLVNHLHVKFLSIGDDFKFGSKRQGNFAMLQAASKRFGFIVEDNRSFCLDAQRISSTAIREALANDDLQLAENLLGKPYRIFGRVIHGNKLGRTIGFPTANIRLHRQVNPIKGVYAVKVRLKSGEIFNGVANMGKRPTINGLMQLLEVHLFDFSQNIYGQMVEVEFCHKIRNEIKFPSFDDLKVQIEKDVETAKAFFNSLEHHHHHH | not soluble
MGSDKIHHHHHHMLNEMEKTVLQMIMAGSDISRVDISRALGISKPVVSKAVNRLIELGFVKEAGRKESSSKGGRKPVLLSFVPESRYVIGVDIGGTKIDAVLTDLVGNVLNKEHILLPSNLDKRKLLELIKKVIHPFLVYERILGIGIGIPGTVDEDHLVKRIPAFDVTDWDLKEELEKTFGYPVFVENNANLDAFAEAKIGAGRGFRCVLLISVGWGIGSGIVYDGKIFRGARGKAGEFGHIVTDWSKEKEIVLEKGFGHLEEWFSGFSMSKRFGKSPEWVFEKRHNEIKKNLEHFGVAVANAIVLFDPDVVIIKGGIGLHQFEKISAVVRSVVSKIVPEDILKDVEIRKGEIEEYGVAIGGALFVIENILGLKGGGKYEGCQASREVGSKAGV | not soluble
MARTQYRAEEDDDEKVVDVINEDEEDENKSDIDEDFDEDEDEDEDKQESVKAALEKERKRGEALTNLERQAKRLGVSFDAAKAIKSGMSVEKAKNVVLTAAVSKSASLKLSTTAPHRDGTSKEKIHAKWETAWRAIK | not soluble
MDREALLERLKEPFDLLVLGGGATGAGVLWEATLRGLKAALVEAGDFASGTSSRSTKLLHGGVRYLELAFKRLDRRQLKLVVDALHERKVVMDLAPHLAKPLTLVTPLFRPLEIPYYTLGLKLYDLLAGKRRLAPSRYLPPEEVARLFPDLPKTLGGVAYQDGQFADFRLNLALVLSALERGAVALNHAEATALLLEGGRVRGAVVRDGLSGKEVEVRAKAVVNATGSLADRVRRLLDPHLPPLLTASSGVHLVLDYPLEAGLLVPKTRDGRVLFLLPYRGMALLGTTDLPAEPASCPLPREEEVAYLLEEIRPYLGDVSGRVRAVWSGLRPLVGKGETKLLVRDHYIEERRGLYTLVGGKWTTFRLMALDLVERLAKDLGLALPPSKSHATPLLGAGPRPPLPLPEEAARRLWETYGTLAPEVLALGDRPLLPGLPYLEGEVVWAVRRELARKPLDVLARRMGLAFLDQEKTREALPKVVELMAGLLGWDERERALRLKEAEEGLPGLC | soluble
MSLSTIKDIARVAGVSVATVSRVVNNDPKVKEKTKLKVTKVMLDLNYTPNANARALVTQKNTTIGVIIPSLTDPFFASLANGVEQVARQQSMQLLLSTGLVSAESERQAINLLRERRCDVMVVHSKKLTDDELIALSEQIPGLVLIDRHIEQISHRCVWLDNLEGGKIAARHLLALNHQKFASISSKYQIEDPGLRLEGFTRELTGAGFAIDKELIEYGEPNLQGGEIATQHLLSSGKTFSALFVYNDAMAIGAISTLEDNGYRVPQDISVIGFDDVLLSRYSRPKLSTLNYPIEEMAQQAANLAIELTKERKAAKDEYKVESKTHKYVPRLVKRESTSLEGHHHHHH | soluble
GSPGIPGSTSELEEDFAKILMLKEERIKELEKRLSEKEEEIQELKRKLHKCQSVLPVPSTHIGPRTT | soluble
MKTLTEIKQTPKGIIKADESFNQVKDKIRLPRRILYLGCGSSHFLAKLLAMVTNMHGGTGVALPCSEFLYSKEAYPIGKPELVVGISRSGETTEVLLALEKINTPKLGISAYESSLTRACDYSLVVPTIEESVVMTHSFTAFYFAYLQLLRHSYGLPLLEATEVAKATEKALEYENYIKEIVEDFDFQNVIFLGSGLLYPVALEASLKMKEMAIFWSEAYPTFEVRHGFKAIADENTLVVLMAQELFEWHKKLVNEFKGQRARVLLISNSQQEFGQDYSIEVPRLSKDATPIPYLPVVQLLSYYKAVARGLNPDNPRFLDKVVRWLEHHHHHH | soluble
MGSDKIHHHHHHMQSFDVVIAGGGMVGLALACGLQGSGLRIAVLEKQAAEPQTLGKGHALRVSAINAASECLLRHIGVWENLVAQRVSPYNDMQVWDKDSFGKISFSGEEFGFSHLGHIIENPVIQQVLWQRASQLSDITLLSPTSLKQVAWGENEAFITLQDDSMLTARLVVGADGAHSWLRQHADIPLTFWDYGHHALVANIRTEHPHQSVARQAFHGDGILAFLPLDDPHLCSIVWSLSPEQALVMQSLPVEEFNRQVAMAFDMRLGLCELESERQTFPLMGRYARSFAAHRLVLVGDAAHTIHPLAGQGVNLGFMDVAELIAELKRLQTQGKDIGQHLYLRRYERRRKHSAAVMLASMQGFRELFDGDNPAKKLLRDVGLVLADKLPGIKPTLVRQAMGLHDLPDWLSAGK | not soluble
MSLTNLPEDRTGEEIRDAIKIDGEAVRGHLDELVRSTVEETLNQMLDAEADQICKAKRYERSPDRVDSRAGSYSRKLQTKAGEVSLKVPQLRSLPLETQIIERYKRRESSVEEALVEMYLAGVSVRRVEDITEALWGTRVSSSTVSELNQKIYERIDVWRNRPLEGEHPYVMLDGIWLKRSWGGEVKNIAVLVAVGVRSDGHREILSVAEGTKEDSESWRTFLRHLKERGLQGVRLITSDKCLGLVEALGEFFPEAAWQRCIVHFYRNVLKDVPRSKSRDVAAMLKAVHAQEDRTAATEKAEQVAEKLASLRLGNAAKCFRAGVQETLAYMNFPREHWTRLRSNNMLERIMKEIRRRTRVVGAFPDGQSALMLVAARLRHIAGTHWGTRRYLDMDRLHEPEEREDHEGHHHHHH | soluble
SRTVIPGAVKYTLVYDNGSSQAVIATAPEITPTELEATLRQAASHLYSYGRLGSRGNNQLTIRARTIIHAEPGVSVPVYLGKVQRTLTTREDPEMAVEVYLDKFAQLSKPTA | not soluble
AHHHHHHGSSVEVPLNPITRSEIHQLESILLFATLFRPEVIELIKDPAERLTWVDSLAVAAGAIAREKAGMTVSEIARELGRTEQTIRKHLKGESKAGQLVRETYELIKQGKLDELIKTIEMIEKGGLREVVAKEEYEKLLQEYEKLKQEYEAIKEKVEAAELESLEKAKEEIENLKKKLQKLEEEKKELEKELKEQKVKLIEYEAKAKRAEELENKVKELEQLAKESEELKKKLEEVQAEAEKAKELENRIKELEEEITKLKDGIKKAKEILESLL | not soluble
MGSDKIHHHHHHMPLPIRDLYTFFVVARAGAMQAAAHELGVTPGAISQRIRSIEDRYGKRLFVRSRDGVSLTASGKALWKEVKSAFAQIETSHNRHIGKDGKTILRISAAPTFAHSFLVSNLASFNEDHPGIRFNIETEDRLADLRSEPIDLAIRHGLGDYAGLRSEWLCAPELIVVGSPALLESQHPVKEPEDCLRFTLLPDETGLDWALWFEAHRVNAVAPSYGTAFKDGFLTVKAASRGQGLALINDIYVREELADGRLVQLLPGSWPTKFAYYAVALPETFDRPAVKAFVKWLCAACAVEQMHQK | not soluble
STSAAQQGRNQNGEYNILDSIIAETRLSPDDEAYDIAKRGVSAFIEELLKPQNDGEPVKKAMVDRMIAEIDAKLSTQMDEILHHPDFQALESAWRGLQLLVDRTNFRENIKIEILSVSKQDLLDDFEDSPEVMQSGLYKHIYTAEYGQFGGQPVGAIIANYYMSPSSPDVKLMQYVSSVACMAHAPFVAAAGPKFFGLESFTGLPDLKDLKDHFEGPQFAKWQSFRQSEDSRYVALTVPRFLLRTPYDPEENPVKSFAYKETVANSHEHYLWGNTAYAFGTKLTDSFAKYRWCPNIIGPQSGGAVEDLPLHHFESMGEIETKIPTEVLVSDRREYELAEEGFISLTMRKGSDNAAFFSASSVQKPKFFGISAEGKAAELNYKLGTQLPYMMIVNRLAHYLKVLQREQLGSWKERTDLELELNKWIRQYVADQENPSAEVRGRRPLRAAQIIVSDVEGEPGWYRVSLNVRPHFKYMGADFTLSLVG | not soluble
MASEHFDMWESRFSADGYLFGTAPNAFLASCHDLLPKQGRALAIADGEGRNGVFLAECGLSVLSVDFSPTAQAKAHKLAAERGVTIETRTADLLSWQWPGGFDVIAGIFFQFVEPEQRPQIFQQIRAALKPGALLLIEGYRPKQLAYKTGGPSRAENLYTRELLEQAFGDFDNLSIRERDSEIVEGAGHAGLSALIDLIGWKPKLEHHHHHH | not soluble
